{"source": "patent US20240252614A1", "about": "(Pfizer, published 2024)", "binders": {"B1": {"name": "PIV1-8 mAb (antibody, V domains shown)", "VH": "QVQLVQSGAEVKKPGSSVKVSCEASGGTFSNYVISWVRQAPGQGLEWMGGIIPVFATAKYAQKFQGRVTIIADQSTNTAYLELSSLRSDDTAVYFCASVDSGGTWWDAFAIWGQGTMVTVSS", "VL": "QAVVTQPRSVSGSPGQAVTISCTGTSSDVGGYNYVSWYQHHPGKAPKLIIYDVTKRPSGVPDRFSGSKSGNTASLTISGLQTEYEADYYCCSYAGSYTLVFGGGTKLTVLG", "notes": "human IgG1; also called hPIV1-8 mAb; hPIV1-8"}, "B2": {"name": "hMPV-2 mAb (antibody, V domains shown)", "VH": "QVQLQQSGAEVKKPGASVKVSCKASGYTFTSYGISWVRQAPGQGLEWMGWISGYNGNTNYAQTFQGTFTMTTDTSTSTAYMELRRLRSGDTAVYYCARDRYYASGSYNGMDVWGQGTTVTVSS", "VL": "QSALTQPPSASGAPGQRVTVSCSGSSSNVGSSSVYWYQQLPGTAPKLLIYRNNQRPSGVPDRFSGSKSGTSASLAISGLRSEDEADYYCAAWDDSLSGWVFGGGTKLTVLG", "notes": "human IgG1"}}, "key": {"PIV1047": {"target": "T1, PIV1047 (PIV1)", "T1 construct": "F113G, F114S, Q92C-G134C, A466L, S473L, A480L", "assay": "BLI, 56C stress;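 further: binding of thermally stressed PIV1 F mutant supernatant to mAb on AHC biosensors for 5 min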", "method": "(§1) The OCTET HTX (Sartorius, Gottingen, Germany) instrument was used to evaluate the expression and conformational integrity for each mutant. All measurements were conducted at 30° C. temperature in 96-well black plates (Corning, Corning, NY) with a final volume of 240 μL per well at a constant agitation rate of 1000 RPM.\n(§2) Conformation integrity of PIV1 F protein mutants were evaluated by a thermal stress experiment. Crude cell culture supernatants were normalized based on the results of the titer quantitation and then incubated for 1 hour at room temperature and two higher temperatures. For the initial testing of PIV1 mutants, the two temperatures were 50° C. and 53° C. […] Anti-Human IgG Fc Capture (AHC) biosensors were first equilibrated in PB for before being dipped into more PB to establish the initial baseline. […] The mAb-bound biosensors were then dipped into the thermal stresses cell culture supernatants for 5 minutes."}, "PIV1052": {"target": "T2, PIV1052 (PIV1)", "T2 construct": "Q92C-G134C, A466V, S473V; also called PV1052", "assay": "BLI, 56C stress", "method": "as §1, §2"}, "PIV1055": {"target": "T3, PIV1055 (PIV1)", "T3 construct": "A466L, S473L, G134A", "assay": "BLI, 56C stress", "method": "as §1, §2"}, "PIV1058": {"target": "T4, PIV1058 (PIV1)", "T4 construct": "A466L, S473L, Q92A, G134A", "assay": "BLI, 56C stress", "method": "as §1, §2"}, "PIV1063": {"target": "T5, PIV1063 (PIV1)", "T5 construct": "A466L, S473L, A480L, Q92A, G134L", "assay": "BLI, 56C stress", "method": "as §1, §2"}, "PIV1064": {"target": "T6, PIV1064 (PIV1)", "T6 construct": "F113G, F114S, Q92C-G134C, A466I, S473I, A480L", "assay": "BLI, 56C stress", "method": "as §1, §2"}, "PIV1065": {"target": "T7, PIV1065 (PIV1)", "T7 construct": "F113G, F114S, Q92C-G134C, A466I, S473I", "assay": "BLI, 56C stress", "method": "as §1, §2"}, "[1]": {"target": "T8, stabilized hPIV1 F protein trimer in pre-fusion conformation (human parainfluenza virus 1)", "T8 construct": "also called preF-hPIV1; HPIV1 pre-fusion F protein", "assay": "BLI, mAb captured, F protein at 50 nM"}, "[2]": {"target": "stabilized hPIV3 F protein trimer in pre-fusion conformation (human parainfluenza virus 3)", "assay": "BLI, mAb captured, F protein at 50 nM"}, "hMPV047": {"target": "T9, hMPV047 (hMPV A, UniProt Q6WB98 19-102)", "T9 construct": "L141C-A159C", "assay": "BLI, 53C stress", "method": "as §1\n(§3) Conformation integrity of hMPV A F protein mutants were evaluated by thermal stress experiments. Crude cell culture supernatants were normalized based on the results of the titer quantitation and then incubated for 1 hour at room temperature and two higher temperatures. […] Anti-Human IgG Fc Capture (AHC) biosensors were first equilibrated in PB before being dipped into more PB to establish the initial baseline. […] The mAb-bound biosensors were then dipped into the thermal stressed cell culture supernatants for 5 minutes. The kinetics analysis was done by OCTET data analysis software (version 12.0, Sartorius) based on curve fitting of the entire associate step."}, "hMPV048": {"target": "T10, hMPV048 (hMPV A, UniProt Q6WB98 19-102)", "T10 construct": "L141C-A161C", "assay": "BLI, 53C stress", "method": "as §1, §3"}, "hMPV049": {"target": "T11, hMPV049 (hMPV A, UniProt Q6WB98 19-102)", "T11 construct": "E146C-T160C", "assay": "BLI, 53C stress", "method": "as §1, §3"}, "hMPV050": {"target": "T12, hMPV050 (hMPV A, UniProt Q6WB98 19-102)", "T12 construct": "V148C-L158C", "assay": "BLI, 53C stress", "method": "as §1, §3"}, "hMPV052": {"target": "T13, hMPV052 (hMPV A, UniProt Q6WB98 19-102)", "T13 construct": "L66P", "assay": "BLI, 53C stress", "method": "as §1, §3"}, "hMPV053": {"target": "T14, hMPV053 (hMPV A, UniProt Q6WB98 19-102)", "T14 construct": "L110P", "assay": "BLI, 53C stress", "method": "as §1, §3"}, "hMPV054": {"target": "T15, hMPV054 (hMPV A, UniProt Q6WB98 19-102)", "T15 construct": "S132P", "assay": "BLI, 53C stress", "method": "as §1, §3"}, "hMPV055": {"target": "T16, hMPV055 (hMPV A, UniProt Q6WB98 19-102)", "T16 construct": "N145P", "assay": "BLI, 53C stress", "method": "as §1, §3"}, "hMPV058": {"target": "T17, hMPV058 (hMPV A, UniProt Q6WB98 19-102)", "T17 construct": "L187P", "assay": "BLI, 53C stress", "method": "as §1, §3"}, "hMPV059": {"target": "T18, hMPV059 (hMPV A, UniProt Q6WB98 19-102)", "T18 construct": "V449P", "assay": "BLI, 53C stress", "method": "as §1, §3"}, "hMPV060": {"target": "T19, hMPV060 (hMPV A, UniProt Q6WB98 19-102)", "T19 construct": "A459P", "assay": "BLI, 53C stress", "method": "as §1, §3"}, "hMPV061": {"target": "T20, hMPV061 (hMPV A, UniProt Q6WB98 19-102)", "T20 construct": "G106A", "assay": "BLI, 53C stress", "method": "as §1, §3"}, "hMPV062": {"target": "T21, hMPV062 (hMPV A, UniProt Q6WB98 19-102)", "T21 construct": "G121A", "assay": "BLI, 53C stress", "method": "as §1, §3"}, "hMPV063": {"target": "T22, hMPV063 (hMPV A, UniProt Q6WB98 19-102)", "T22 construct": "G239A", "assay": "BLI, 53C stress", "method": "as §1, §3"}, "hMPV066": {"target": "T23, hMPV066 (hMPV A, UniProt Q6WB98 19-102)", "T23 construct": "T49I", "assay": "BLI, 53C stress", "method": "as §1, §3"}, "hMPV067": {"target": "T24, hMPV067 (hMPV A, UniProt Q6WB98 19-102)", "T24 construct": "S149T", "assay": "BLI, 53C stress", "method": "as §1, §3"}, "hMPV068": {"target": "T25, hMPV068 (hMPV A, UniProt Q6WB98 19-102)", "T25 construct": "A159V", "assay": "BLI, 53C stress", "method": "as §1, §3"}, "hMPV069": {"target": "T26, hMPV069 (hMPV A, UniProt Q6WB98 19-102)", "T26 construct": "S291I", "assay": "BLI, 53C stress", "method": "as §1, §3"}, "hMPV071": {"target": "T27, hMPV071 (hMPV A, UniProt Q6WB98 19-102)", "T27 construct": "T365I", "assay": "BLI, 53C stress", "method": "as §1, §3"}, "hMPV075": {"target": "T28, hMPV075 (hMPV A, UniProt Q6WB98 19-102)", "T28 construct": "L473F", "assay": "BLI, 53C stress", "method": "as §1, §3"}, "hMPV077": {"target": "T29, hMPV077 (hMPV A, UniProt Q6WB98 19-102)", "T29 construct": "Q476C, S477C", "assay": "BLI, 53C stress", "method": "as §1, §3"}, "hMPV A F WT Control": {"target": "hMPV A F WT Control (hMPV A, UniProt Q6WB98 19-102)", "assay": "BLI, 53C stress", "method": "as §1, §3"}, "hMPV043": {"target": "T30, hMPV043 (hMPV A, UniProt Q6WB98 19-102)", "T30 construct": "G366C-D454C", "assay": "BLI, 53C stress", "method": "as §1, §3"}, "hMPV044": {"target": "T31, hMPV044 (hMPV A, UniProt Q6WB98 19-102)", "T31 construct": "T411C-Q434C", "assay": "BLI, 53C stress", "method": "as §1, §3"}, "hMPV045": {"target": "T32, hMPV045 (hMPV A, UniProt Q6WB98 19-102)", "T32 construct": "I137C-A159C", "assay": "BLI, 53C stress", "method": "as §1, §3"}, "hMPV046": {"target": "T33, hMPV046 (hMPV A, UniProt Q6WB98 19-102)", "T33 construct": "A140C-S149C", "assay": "BLI, 53C stress", "method": "as §1, §3"}, "hMPV B F WT Control": {"target": "hMPV B F WT Control (hMPV B, UniProt Q6WB98 19-102)", "assay": "BLI, 53C stress", "method": "All measurements were conducted at 30° C. temperature in 96-well black plates (Corning, Corning, NY) with a final volume of 240 μL per well at a constant agitation rate of 1000 RPM.\nConformation integrity of hMPV B F protein mutants were evaluated by a thermal stress experiment. Crude cell culture supernatants were normalized based on the results of the titer quantitation and then incubated for 1 hour at room temperature and two higher temperatures. For the testing of hMPV B single mutants, the two temperatures were 53° C. and 56° C. After the incubation, the protein mutants were probed with prefusion specific monoclonal antibody hMPV-2 by OCTET HTX. Anti-Human IgG Fc Capture (AHC) biosensors were first equilibrated in PB before being dipped into more PB for to establish the initial baseline. Biosensors were incubated with hMPV-2 before being equilibrated in PB to establish the experimental baseline. The mAb-bound biosensors were then dipped into the thermal stresses cell culture supernatants for 5 minutes."}}}
{"binder": "B1", "values": [{"measurement": "Response Shift", "setting": "PIV1047", "result": 0.754, "unit": "nm"}, {"measurement": "Response Shift", "setting": "PIV1052", "result": -0.094, "unit": "nm"}, {"measurement": "Response Shift", "setting": "PIV1055", "result": 0.682, "unit": "nm"}, {"measurement": "Response Shift", "setting": "PIV1058", "result": 0.543, "unit": "nm"}, {"measurement": "Response Shift", "setting": "PIV1063", "result": -0.069, "unit": "nm"}, {"measurement": "Response Shift", "setting": "PIV1064", "result": 0.702, "unit": "nm"}, {"measurement": "Response Shift", "setting": "PIV1065", "result": 0.677, "unit": "nm"}, {"measurement": "Binding response BLI", "setting": "[1]", "result": 1.96, "unit": "nm"}, {"measurement": "Binding response BLI", "setting": "[2]", "result": -0.052, "unit": "nm"}]}
{"binder": "B2", "values": [{"measurement": "Response Shift", "setting": "hMPV047", "result": -0.079, "unit": "nm"}, {"measurement": "Response Shift", "setting": "hMPV048", "result": -0.059, "unit": "nm"}, {"measurement": "Response Shift", "setting": "hMPV049", "result": -0.011, "unit": "nm"}, {"measurement": "Response Shift", "setting": "hMPV050", "result": -0.032, "unit": "nm"}, {"measurement": "Response Shift", "setting": "hMPV052", "result": -0.044, "unit": "nm"}, {"measurement": "Response Shift", "setting": "hMPV053", "result": 0.017, "unit": "nm"}, {"measurement": "Response Shift", "setting": "hMPV054", "result": -0.072, "unit": "nm"}, {"measurement": "Response Shift", "setting": "hMPV055", "result": -0.073, "unit": "nm"}, {"measurement": "Response Shift", "setting": "hMPV058", "result": -0.052, "unit": "nm"}, {"measurement": "Response Shift", "setting": "hMPV059", "result": -0.051, "unit": "nm"}, {"measurement": "Response Shift", "setting": "hMPV060", "result": -0.045, "unit": "nm"}, {"measurement": "Response Shift", "setting": "hMPV061", "result": -0.073, "unit": "nm"}, {"measurement": "Response Shift", "setting": "hMPV062", "result": 0.013, "unit": "nm"}, {"measurement": "Response Shift", "setting": "hMPV063", "result": 0.001, "unit": "nm"}, {"measurement": "Response Shift", "setting": "hMPV066", "result": 0.265, "unit": "nm"}, {"measurement": "Response Shift", "setting": "hMPV067", "result": 0.184, "unit": "nm"}, {"measurement": "Response Shift", "setting": "hMPV068", "result": 0.022, "unit": "nm"}, {"measurement": "Response Shift", "setting": "hMPV069", "result": -0.005, "unit": "nm"}, {"measurement": "Response Shift", "setting": "hMPV071", "result": -0.046, "unit": "nm"}, {"measurement": "Response Shift", "setting": "hMPV075", "result": -0.082, "unit": "nm"}, {"measurement": "Response Shift", "setting": "hMPV077", "result": -0.007, "unit": "nm"}, {"measurement": "Response Shift", "setting": "hMPV A F WT Control", "result": -0.026, "unit": "nm"}, {"measurement": "Response Shift", "setting": "hMPV043", "result": 0.03, "unit": "nm"}, {"measurement": "Response Shift", "setting": "hMPV044", "result": 0.618, "unit": "nm"}, {"measurement": "Response Shift", "setting": "hMPV045", "result": -0.048, "unit": "nm"}, {"measurement": "Response Shift", "setting": "hMPV046", "result": 0.196, "unit": "nm"}, {"measurement": "Response Shift", "setting": "hMPV B F WT Control", "result": 0.418, "unit": "nm"}]}
